From article doi:10.1101/2025.03.04.641557 (bioRxiv, 2025)
Numbering of substitutions follows the chain as printed. Names and notes keep the numbering of the source.

B1: 3X-Flag tagged full length human MIDN^WT (midnolin, 468-aa isoform) (natural protein)
chain: MEPQPGGARSCRRGAPGGACELGPAAEAAPMSLAIHSTTGTRYDLAVPPDETVEGLRKRLSQRLKVPKERLALLHKDTRLSSGKLQEFGVGDGSKLTLVPTVEAGLMSQASRPEQSVMQALESLTETQVSDFLSGRSPLTLALRVGDHMMFVQLQLAAQHAPLQHRHVLAAAAAAAAARGDPSIASPVSSPCRPVSSAARVPPVPTSPSPASPSPITAGSFRSHAASTTCPEQMDCSPTASSSASPGASTTSTPGASPAPRSRKPGAVIESFVNHAPGVFSGTFSGTLHPNCQDSSGRPRRDIGTILQILNDLLSATRHYQGMPPSLAQLRCHAQCSPASPAPDLAPRTTSCEKLTAAPSASLLQGQSQIRMCKPPGDRLRQTENRATRCKVERLQLLLQQKRLRRKARRDARGPYHWSPSRKAGRSDSSSSGGGGSPSEASGLGLDFEDSVWKPEVNPDIKSEFVVA
B2: 3X-Flag tagged full length human MIDN L399K (purified) (natural protein)
chain: B1 chain with L399K
B3: 3X-Flag tagged full length human MIDN R406A (purified) (natural protein)
chain: B1 chain with R406A
B4: 3X-Flag tagged full length human MIDN N385A (purified) (natural protein)
chain: B1 chain with N385A
B5: 3X-Flag tagged full length human MIDN R403A (purified) (natural protein)
chain: B1 chain with R403A
B6: 3X-Flag tagged full length human MIDN L395K (purified) (natural protein)
chain: B1 chain with L395K
B7: 3X-Flag tagged full length human MIDN K391A (purified) (natural protein)
chain: B1 chain with K391A

biological target: human 26S proteasome (proteasome holoenzyme: 20S core particle with 19S regulatory particle) (human, UniProt P35998;P62191;P43686;P62333;P17980;P62195;Q13200;Q99460;O43242;O00232;O00231;Q15 …); assay: pull-down

| Molecule | binding result |
| --- | --- |
| B1 | binds |
| B2 | binds |
| B3 | binds |
| B4 | binds |
| B5 | binds |
| B6 | binds |
| B7 | binds |

biological target: HA-tagged MIDN^△α-Helix-C (human) (UniProt Q504T8); assay: co-IP

| Molecule | reduction of binding relative to WT MIDN [%] |
| --- | --- |
| Flag-tagged RPN11 (from UniProt O00487 1-310) (enzyme) | 60 |
